From article PMC5308204 (Nature genetics, 2010)
Positions count from the first letter of the chain named. Each block holds one binder with its values, some of them ahead of it.

Assays:
Experiment in all cases: co-IP
[1] = molecular target: T1, HA-tagged VPS33B (human, UniProt Q9H267 1-617)
T1 sequence (looked up): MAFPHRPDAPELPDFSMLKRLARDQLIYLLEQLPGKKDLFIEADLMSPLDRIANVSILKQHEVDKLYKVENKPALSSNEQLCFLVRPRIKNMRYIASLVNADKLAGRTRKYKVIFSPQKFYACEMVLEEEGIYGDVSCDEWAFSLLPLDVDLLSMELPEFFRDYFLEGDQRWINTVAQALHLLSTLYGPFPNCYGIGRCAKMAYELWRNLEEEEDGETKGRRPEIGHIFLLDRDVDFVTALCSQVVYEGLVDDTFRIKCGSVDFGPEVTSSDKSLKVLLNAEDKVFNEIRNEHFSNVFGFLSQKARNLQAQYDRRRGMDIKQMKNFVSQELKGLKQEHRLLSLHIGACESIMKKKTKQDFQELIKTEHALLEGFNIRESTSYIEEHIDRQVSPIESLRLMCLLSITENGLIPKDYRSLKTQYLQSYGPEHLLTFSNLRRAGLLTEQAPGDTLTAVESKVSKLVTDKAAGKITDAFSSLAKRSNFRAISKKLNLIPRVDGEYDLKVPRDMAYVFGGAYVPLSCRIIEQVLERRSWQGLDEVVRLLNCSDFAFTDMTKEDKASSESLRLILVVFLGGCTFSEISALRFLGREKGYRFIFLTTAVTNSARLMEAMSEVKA

[2] = molecular target: T2, HA-tagged VPS33B (L30P) mutant (human, UniProt Q9H267 1-617, L30P)
T2 sequence (looked up): T1 sequence (looked up) with L30P

[3] = molecular target: T3, HA-tagged VPS33A (UniProt Q96AX1 1-596)
T3 sequence (looked up): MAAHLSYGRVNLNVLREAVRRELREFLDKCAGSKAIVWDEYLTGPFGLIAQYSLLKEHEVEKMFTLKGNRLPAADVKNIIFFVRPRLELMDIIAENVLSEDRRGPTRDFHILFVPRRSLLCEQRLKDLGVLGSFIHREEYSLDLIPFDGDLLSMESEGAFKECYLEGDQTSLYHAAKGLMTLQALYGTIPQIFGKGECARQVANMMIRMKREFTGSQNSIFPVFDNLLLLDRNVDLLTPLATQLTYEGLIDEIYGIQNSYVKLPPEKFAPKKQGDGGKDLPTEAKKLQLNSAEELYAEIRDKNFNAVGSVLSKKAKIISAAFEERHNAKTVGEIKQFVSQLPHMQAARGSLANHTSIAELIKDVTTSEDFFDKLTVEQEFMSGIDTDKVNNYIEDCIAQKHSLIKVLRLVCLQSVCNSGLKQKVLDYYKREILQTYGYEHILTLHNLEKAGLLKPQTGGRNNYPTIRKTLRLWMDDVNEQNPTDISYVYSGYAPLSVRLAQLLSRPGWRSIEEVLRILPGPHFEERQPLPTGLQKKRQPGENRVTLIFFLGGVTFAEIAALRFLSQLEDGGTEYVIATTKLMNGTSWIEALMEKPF

percent of the Myc-tagged input recovered [1]: 28.6%
percent of the Myc-tagged input recovered [2]: 23.8%
B1: Myc-tagged VIPAR (natural protein, human, UniProt Q9H9C1 1-493, looked up)
chain: MNRTKGDEEEYWNSSKFKAFTFDDEDDELSQLKESKRAVNSLRDFVDDDDDDDLERVSWSGEPVGSISWSIRETAGNSGSTHEGREQLKSRNSFSSYAQLPKPTSTYSLSSFFRGRTRPGSFQSLSDALSDTPAKSYAPELGRPKGEYRDYSNDWSPSDTVRRLRKGKVCSLERFRSLQDKLQLLEEAVSMHDGNVITAVLIFLKRTLSKEILFRELEVRQVALRHLIHFLKEIGDQKLLLDLFRFLDRTEELALSHYREHLNIQDPDKRKEFLKTCVGLPFSAEDSAHIQDHYTLLERQIIIEANDRHLESAGQTEIFRKHPRKASILNMPLVTTLFYSCFYHYTEAEGTFSSPVNLKKTFKIPDKQYVLTALAARAKLRAWNDVDALFTTKNWLGYTKKRAPIGFHRVVEILHKNNAPVQILQEYVNLVEDVDTKLNLATKFKCHDVVIDTYRDLKDRQQLLAYRSKVDKGSAEEEKIDALLSSSQIRWKN

percent of the Myc-tagged input recovered [3]: 28.2%
B2: Myc-tagged VPS16 (natural protein, human, UniProt Q9H269 1-839, looked up)
chain: MDCYTANWNPLGDSAFYRKYELYSMDWDLKEELRDCLVAAAPYGGPIALLRNPWRKEKAASVRPVLDIYSASGMPLASLLWKSGPVVSLGWSAEEELLCVQEDGAVLVYGLHGDFRRHFSMGNEVLQNRVLDARIFHTEFGSGVAILTGAHRFTLSANVGDLKLRRMPEVPGLQSAPSCWTVLCQDRVAHILLAVGPDLYLLDHAACSAVTPPGLAPGVSSFLQMAVSFTYRHLALFTDTGYIWMGTASLKEKLCEFNCNIRAPPKQMVWCSRPRSKERAVVVAWERRLMVVGDAPESIQFVLDEDSYLVPELDGVRIFSRSTHEFLHEVPAASEEIFKIASMAPGALLLEAQKEYEKESQKADEYLREIQELGQLTQAVQQCIEAAGHEHQPDMQKSLLRAASFGKCFLDRFPPDSFVHMCQDLRVLNAVRDYHIGIPLTYSQYKQLTIQVLLDRLVLRRLYPLAIQICEYLRLPEVQGVSRILAHWACYKVQQKDVSDEDVARAINQKLGDTPGVSYSDIAARAYGCGRTELAIKLLEYEPRSGEQVPLLLKMKRSKLALSKAIESGDTDLVFTVLLHLKNELNRGDFFMTLRNQPMALSLYRQFCKHQELETLKDLYNQDDNHQELGSFHIRASYAAEERIEGRVAALQTAADAFYKAKNEFAAKATEDQMRLLRLQRRLEDELGGQFLDLSLHDTVTTLILGGHNKRAEQLARDFRIPDKRLWWLKLTALADLEDWEELEKFSKSKKSPIGYLPFVEICMKQHNKYEAKKYASRVGPEQKVKALLLVGDVAQAADVAIEHRNEAELSLVLSHCTGATDGATADKIQRARAQAQKK
